Assay results as given in article PMC6806390.

Molecular target: Cytochrome-C, type III (Sigma C-2506) (UniProt P00004)
Assay: SDS-PAGE of the methanol precipitate

Chain of Cytochrome-C, type III (Sigma C-2506), P00004 1-105 (natural protein; other documents disagree on this pair) (P00004 whole entry): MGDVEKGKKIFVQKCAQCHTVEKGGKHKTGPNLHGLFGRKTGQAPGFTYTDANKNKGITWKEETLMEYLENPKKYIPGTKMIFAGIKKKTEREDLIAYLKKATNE

Cytochrome-C, type III (Sigma C-2506), P00004 1-105 (natural protein; other documents disagree on this pair)
stoichiometry N: > 7
